# Laboratory results reported in the NTF2 design screens of Basanta et al. (2020).
# Experiment: protease stability score; higher = more stable; yeast display proteolysis, trypsin and chymotrypsin;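 also: relative to predicted unfolded state with 0 unfolded-like and 1 meaning tenfold more protease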
row,Sequence,protease stability score
1,SEDEETVHEWFEVLRRDWATGNEENLMKLLDPHARLIIDGRELHGREHIIEFLRRHREHLGVTNIHVEFHIDNRKIFNGKVEVKGTLTIRINGKEEEREVILIIEKIDGRWYIKNLEIR,0.552
2,SDEEDHWHELLERIVRLLMTGDEKTLNKLFDPNMRIIIIIGDKEIRLHGRHKFEKWVRDFLNKFKNVKIEIDDHRAVNGVVQIDGTLFIDGREHHVENNFFIVNGRITEIQIHIK,1.28
3,DEEERDSKRALELMIHWVETGNEERLSRLIDPHARLEIGDKHHHGREEFEKWFRRIDYLQYYTVRHIELQGDKIEVKVELTFIIDGQEVHTETRVIAIKFDGRWRLTSMEIN,1.54
4,SKEEEDARFMMHLWEHVLRTGDEDVLHKLADPDVKIIIGDKEHVGREELIDIFRERLKEWRIHDFHIRRVHVINGKVHVDGETDGTINGRRIIFRIEIHLVIVDGRIKEVEEDME,1.87
5,SEDETELKRWVERFERSMHTGDEEDLRQMADPNTRFEVGDKEIHGWDLWSKIHRKEREKLGVDNVTTNIKRLEMYGDKLRLESELIFNGQRLEVILIAEKIDGKWVVTSFHIH,0.129
6,TEDLEKVHTFLNLLLHSRLTGDEDSLHRMADPNMRVDQGEYQHHGRELFIEWTKRELEHLRLRHYHLEDIDIYNGVVKVTGKMDVEVNGRRHHVDVTLIVLKINGRWHLKSVHIS,1.24
7,DEDDEDADNAIRLIVHSMLTGNEDFFSRLLDPNVRLDYNGVEFIGREDVVRFWNQMRFEFRVEVRRTSSQGDKVNWDIRLRIILHFNGKRHDRLHDTVLISRKYNGKWHVEQIEVR,1.54
8,DEERKWTKEALDKLLRVIATGDEDFINQNADPRVRLEINGVEIHGRELWHKILKDHSERMGVKHTHLESHDEFNGVITIHMRLFVGDKETRIEIINLKVDGKWIIKSLRIE,1.22
9,SEDEKLAHLVTELMTHSDRTGDERILEHLLDPNTRVIINGVSYHGMEAYRHMVRHIRFHNWEIHDVDSVNGQVHVDSRAEGNIDGVRDILNTWIISDKYDGRWIISEIEII,0.53
10,NEEEEEIKTLSEEILRAWMTGDFDHLRDMMDPNTKLDINGKEVHGREILINLLRKIMEDLGVKHIHIRHKEHQGNWTHLDERQIVGDKRINVHYIWVVVDGRIHSIRIEMR,1.16
11,DERERDAEDALDELREIWRTGDWELIHQMLDPEVRLDINGVRLVGREHWVDEVRRLFHKVPGMTYHLKDVHFQGNKMHVDILSRYDGRESKVDLILLKINGKWLNKEVRIREE,0.807
12,DEEDKWETHFLKVLEDSLKTGDETSLERMADPTARLSVGDKEHHGRDLLFFWIHKLLREAGVDKVESELHDEERQGEKVIVDIHLRVGDKVLRVIFYIYKYNGQWFIRSIEVE,1.04
13,SEEDRILELIARMMFNLWLTGNEEELERLVDPNARSVINGQEVHGMHETKELLRRLKEHIRIDDMRISRIEVYNGRAIVDLSVDGEFNGRRDITRVEIVIYVVDGKVRSIEFHRK,1.78
14,DEEEKIARELSRLLAEIIETGDEDILLRMVDPHARFIINGKTIIGRETMWELWRRHVEKLGVSRIISRLRRIHVIDGRVHVHIEETFNGRTQEVRVDYMKIDGVWLIHEISIE,1.35
15,SEEERESEEFWKHLRDVTRTGDFDSLSKLVDPEVRLEWNGRHFIGREHLAELVIDMLNRIDHVELRLHSYRLQGNYLHLRTILIIRINGQQITHDTRITFIKVDGRWIIESKHVH,0.869
16,DDHETEMIHWAELFAELIRTGDEEKLDKLLDPNVKIDINGRKFHGRESMRFALKHLRIHHVEIDDLKVQGDKSFWIGFVEGQIDGQRDRRHSTIELLLVNGRIKSVQLEFR,1.61
17,DEIEKELTDVFWEWLHLHITGDEDRLRDLMDPDVRLIYGDKTAVGREEFEKMWRELRHRFDHIRNVQIHDKRIVGNKLEMDFNFDHEVNGRREHTRVKIVLITINGKLHAFRIEVE,1.4
18,DKEERYLEIAVNVIRHQLETGNEEDLLRNIDPDTRLFIDGRLFHGWETAHYLLRKVKNARIEIRSVHLIGDKIHMDTELIVNGVLRETEITARKVDGQWTWHHIRIE,1.39
19,DEDEELAKKFIEEWHESVLTGDEDSLRKLADPNMKVNVDGRHMVGWEYYKHLLERIDHLTSIEIKRLRVIDGVIDTDVRMDITFDGKRHLLETQLIVLKVNGRWHLRSISMK,1.36
20,DEIEQIMEYLAHVHIEFIITGDEDTLEHLADPHVKIEVNGQSLVGWKHWSRFLKKLGWKRDMRVRHIHAQGDKIHVDGHLVNDFDGREFRYKTHLEIKVVDGKLKVIRIDQE,1.41
21,HEEQELLEEFVEKLRQTLETGDEHFTRELLDPNVRYVQGDKEWHGRDLAAELNKKLGIKVVDIKHVRYWNGRLDLRGEDQVGDKTTHTILHVDKFNGRWFYKEVIFV,0.721
22,SDEEHIVQVALKNYIKAVMTGDEHLFNELMDPNTRNDINGVIYHGMEEWVKSVEELGIERFTIHEVYEHDFRVYNGQVDIHVRVDREVNGRRINDEVEIVAYKVNGRWQLRSLIFR,1.39
23,SEEEHISERAMELLSESIRTGNEHLISKLADPHTRMLYGDKELHGRSRWSEWASRVKNMRFETHEVRVVGDKIRSDVRSNFDGRLHIEHLYILKIDGRWVLDKIEIE,0.246
24,DEEDEYVEKATRFFIKSILTGNEEWVSRLADPHVRLWVGDKEFHGRERYVRVFHEHMRQIRYRDFKLHDIDRQGDKIIVIGRREVEVDGRIDTYEIHIYARKINGRWILESEIVN,0.936
25,DERTLEQLLQDFINNMQTGDHQSLKDLLDENARVNIGDKTLSGRERVTTALKRLMRRVDHIQVDHYEVTNGEMNIDMQLEVNGVRVKVEVIIEVHNGKAKFIEFRVRNEEQWERVEG,2.19

row,Sequence,protease stability score
1,DEEDQFTEKITRILHEIHRTGDFEKWEKLADPHVKVVIGEFEQHGRETASWVIEWLARYMGIKHIELRDHRVINGVVHLEHEVKVGDKRIDLELRHFVYDGRLKETEIRFR,0.734
2,SEMEEEVRRAMKSFIKDLETGNEKSNHENVDPHARLLINGQEFHGMEHVSRWINKAGIDHFEIDEFRIIGNKIRIDGTITFNGQQHKVRIDVVKVDGRWLVKSLEII,1.29
3,HEEEHVAKEIVEILYHAIITGDEDLIKELMDPNVRLDINGKQVHGRDEWIKELRHLRFRHMKLEVKAVEVVDGRIHSDVILHVDGHFDGRTRRLTIEVHWIIFKINGRWHIQSVEIR,2.31
4,DEDEEQAERAIRIYTEVLNTGNEEESERMADPHVRIIVNGVILHGREMFYQYVHEWRVDIRVILRHVKVFEGWVDVEGEFNSHLEVNGRHENNRSKVRLHILKVNGVWLIHEVRVH,1.5
5,DEQHKEVRTFLEIHINMRATGNEEILFHQVDPHVRLIINGRQFHGWEEYEKFAHTSARFFKNVQIRIHRVEVYIQGDKIHVNMHVWYNVNGQTMEVDLHSEMIKVDGQWRLDSEIISIR,1.33
6,DELEEDVRSSLKVLLHSHRTGNEELNEKMADPNARVTVDGVEFHGREEMVHWISHIRVERFILRSVHFQGDKLHIDGESDGVVNGRRWRRRTHIIELKVDGKWVLKSLIFE,1.46
7,DEHDKLLKELSERMFELWETGDEDRLHKLADPHALSRVGEFSIHGMRNHMEWLREWLRRVKNATIHVRDVDLQGNKSRFDHELIIDGVELKVIDNIVLVNGRIKEIRIEIN,0.027
8,DEDERETRFIIKLLLETIQTGDEKTFEELLDPSVRLVVGDKIIHGRDVLSEFFSHARFHRIEIHNMESQGDKAHIDIRVDGKFNGKRKTTEVNLHIEKFDGRWRIKEFRIH,2.08
9,TEEEEEMRELTELWLNILHTGDEDRFRELADPRVRLHINGRHNHGREIFMEFFDRSLKILGADHRTIHRIRFIGDKIDIKGREYINGQETRATLHVIIVNGRIKFEEWRFD,0.989
10,DDDHKVAEKMNDTFLRLFLTGDFERLWELADPHVRILFNGVEFHGREQMSTVIEHHLRQMRVHDVTIEHITWQGDKLHVHSILRTRVGDKKVDDHIEVNILKVDGKWIVKEVKIL,2.01
11,DEDKDMKDTMLKDLLHTLETGDEDIWAKLIDPNTQVDIGDKRIHGREKIVEHFRRADVLTIHHVRLRQFHHFDGRAHMNVQFDGTVQINGVEVRFDVTVKLVFLKVNGRWFLHSEERE,1.15
12,DEDEESSKLAIEFLLRALITGDEKTMSELLDPNARLVVNGVEIVGMHVIVRHFIEMRLERIHVRIRSWTVFDGRLLNDTELHRHINVNGVEEDRSNRVELFVKKVDGKWKLEMIIIN,2.63
13,DEHLEYVREIARLFWQLLSTGDEENLRKLFDPNARLDVNGQEFHGREEIIIFLRHWRMRSKDIRIHHVNVQGEKMEVDIHTDLEFEVGDFKYEEHTRVEIIVEKINGRWLVRHVKIR,0.437
14,DEDEKERKRDLDKLRHFLETGNEQHLLEMLDPHARVTVGDKELIGREDFSKWMLEMRIHHDEIKRLEIYNGRIHVDYEMDVEVGDKRFRTDFRITARKVNGRWILHSMEVK,1.54
15,DDEEKEHLEMLKQFWENSYTGDERTLLHLLDPHARFILEFNGKSLQYHGREEVARFLRWLLEHIRVKDSHIHDIDVIGEKAVVDGRMHGEIDGREVEKETRLFIVVIDGRITKVFIEVR,1.6
16,DDTKKHMEKIFRLMIEWWETGDFDRMENNADPHVRAHIGDKEIHGREEMIKLIRELIEELGIDHEETEEVRVYDGRIHVHSRLHINGKEIEVQLHSQVVDGRIESFELHVITR,1.05
17,SEEEKYFEHWLKILLQNMHTGNEENLKRLADPTYRLHIGDKNFIGREMFLDSMRRIDHFDDAKLKSIETYGDYVHAEIDHDGRVDGRKIRVNTILLTLKVDGRWIVHSFKIE,0.827
18,DDLEEEAKDAVTKFIHLLLTGDWKEIREMVDPNVRIDVGDKEKHGWEDFIRDALYMHHQVDHIEVRIRHIDIFENRVVTHSVIYIEVNGQDIRLDLTLYIKKINGRWEIRQIEFK,1.82
19,DERKHFFDIALEILKKTIKTGDEREHNENVDPRVKNDINGVELHGMETVSEFHLRLWEEMRVEEIHIRDLDIQGNKAVFHTSLRRRYNGRELEIELHYIVVKVNGRWFIQEIIIR,1.57
20,DEDTRDTEIAFELLLRHMYTGDWHLVERMLDPNVRVHQGDFHTVGWEDFVRISLEARLHDMRIHQVRSQGDFVEIDGHVDFEINGKRIRVRTILIVLKVNGRWFLKSIEIR,1.23
21,DETEEAVLSVARLWLHLFLTGDEERTQKMMDPNARVEIDGKEVVGREKVTDMIRHKIEQIRIQDHKEKDIKVIGDKVHLHVQFHGEVDGKEINTLILINVMVVDGRIKHVEIRVS,0.77
22,DEDHELSKLAQEWFYKTMVTGDEETAERLADPNMRIDINGKSLHGRKWQRHIIRDLGVDHVEFHDVRTINGQLHISTTINVDGRNQHTHIIVLKIDGRWSLRSSEFK,0.614
23,DKDEKETKDAIHILLHVARTGDERLLNTLFDPDVKLEVGDKSHHGRETITKVWKDWFHEWRIRDVTYHHVESQGDKIHVDLRIDGIFDGQRTHIESHNVLLKVNGQWLLRREVVH,0.512
24,SEEEDHAKEMFRILIENLITGDEDTLRKLIDPDVRFIYGDKLHVGWKDFREWQHRMDRRVKNMKIHVRDMRVYNGVSHAETEEHYNGKTVETEVHFKVIDGQLKHLEIRIH,0.188
25,SEDEKIAEHLMHEISRSTQTGDEEMSRRLMDPNVRIDINGKQIHGWETWQKEVERVDHSHSRFQLRDVRSQGNYLDARGEFHLDLHINGRTVHIVYDVTFIILKIDGRWFLHSIKVR,0.519
